B1: CD2-associated protein, residues 271 to 331; numbered along this chain, Q9Y5K6 (parent)
chain: KEYCRTLFAYEGTNEDELTFKEGEIIHLISKETGEAGWWRGELNGKEGVFPDNFAVQINEL

Variants of: B1
Assay: abundance fitness (aPCA) (normalised: wild type 0, dead -1); higher = more abundant; growth selection in yeast, the domain comes from the species named
Conditions: Homo sapiens

Abundance fitness, by site and new letter:
E60: I -0.475, K 0.03, L -0.296, M -0.42, N -0.227, P -0.015, Q -0.115, R -0.178, S -0.124, T -0.11, V -0.291, W -0.258
L61: A 0.033, C 0.275, E 0.026, H 0.009, I -0.29, K 0.033, M -0.003, P 0.215, Q 0.113, R -0.049, S 0.152, T 0.105, V 0.02, W -0.116, Y 0.064

Reference: the Human Domainome abundance scans (Beltran et al. 2025)
